# In publication PMC9482650, “Quantitative fragmentomics allow affinity mapping of interactomes” (Nature Communications, 2022):
# Assays:
# Assay in all cases: holdup assay
# Set-up in all cases: key: below the threshold = too weak to quantify, mostly under pKd 3.1 to 4
# Conditions in all cases: plain residues with an end cap or a label only (N-terminal biotin on a linker: ttds)
# ARHGEF12, Q9NZN5-2 = biological target: ARHGEF12, Q9NZN5-2
# GORASP1, Q9BQQ3 = biological target: GORASP1, Q9BQQ3
# DLG3_3, Q92796 = biological target: T1, DLG3_3, Q92796
# T1 sequence (Q92796 374-475, limits assumed, looked up): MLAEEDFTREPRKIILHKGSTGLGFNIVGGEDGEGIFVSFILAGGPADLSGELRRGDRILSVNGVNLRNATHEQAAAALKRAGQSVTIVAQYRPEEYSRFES
# DVL3, Q92997 = biological target: T2, DVL3, Q92997
# T2 sequence (Q92997 244-331, limits assumed, looked up): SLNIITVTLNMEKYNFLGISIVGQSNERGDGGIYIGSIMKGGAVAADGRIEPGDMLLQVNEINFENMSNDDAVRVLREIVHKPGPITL
# PCLO, Q9Y6V0 = biological target: T3, PCLO, Q9Y6V0
# T3 sequence (Q9Y6V0 4491-4600, limits assumed, looked up): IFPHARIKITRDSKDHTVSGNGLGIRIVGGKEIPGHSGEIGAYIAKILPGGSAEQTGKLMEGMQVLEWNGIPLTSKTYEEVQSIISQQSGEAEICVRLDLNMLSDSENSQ
# MAST1, Q9Y2H9 = biological target: MAST1, Q9Y2H9
# DLG2_3, Q15700 = biological target: DLG2_3, Q15700
# MAGI2_5, Q86UL8 = biological target: MAGI2_5, Q86UL8
# MPDZ_10, O75970 = biological target: T4, MPDZ_10, O75970
# T4 sequence (O75970 1624-1722, limits assumed, looked up): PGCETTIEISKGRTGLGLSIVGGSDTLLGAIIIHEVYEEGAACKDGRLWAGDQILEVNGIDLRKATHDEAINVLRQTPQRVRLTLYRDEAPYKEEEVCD
# FRMPD3, Q5JV73 = biological target: FRMPD3, Q5JV73
# GRIP1_4, Q9Y3R0 = biological target: T5, GRIP1_4, Q9Y3R0
# T5 sequence (Q9Y3R0 467-571, limits assumed, looked up): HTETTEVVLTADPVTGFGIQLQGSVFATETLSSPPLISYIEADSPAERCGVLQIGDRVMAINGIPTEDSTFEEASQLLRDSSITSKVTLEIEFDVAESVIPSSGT
# NHERF4_4, Q86UT5 = biological target: NHERF4_4, Q86UT5
# GRIP1_5, Q9Y3R0 = biological target: T6, GRIP1_5, Q9Y3R0
# T6 sequence (Q9Y3R0 568-668, limits assumed, looked up): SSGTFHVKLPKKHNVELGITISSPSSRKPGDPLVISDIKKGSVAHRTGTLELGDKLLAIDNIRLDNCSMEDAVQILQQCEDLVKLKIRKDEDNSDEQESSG
# NHERF2_2, Q15599 = biological target: NHERF2_2, Q15599
# PARD3B_1, Q8TEW8 = biological target: T7, PARD3B_1, Q8TEW8
# T7 sequence (Q8TEW8 196-299, limits assumed, looked up): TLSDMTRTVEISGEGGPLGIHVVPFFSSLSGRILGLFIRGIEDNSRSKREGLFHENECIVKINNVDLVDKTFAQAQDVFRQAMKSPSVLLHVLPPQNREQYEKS
# LAP2, Q96RT1 = biological target: LAP2, Q96RT1
# PDZD7_3, Q9H5P4 = biological target: T8, PDZD7_3, Q9H5P4
# T8 sequence (Q9H5P4 857-944, limits assumed, looked up): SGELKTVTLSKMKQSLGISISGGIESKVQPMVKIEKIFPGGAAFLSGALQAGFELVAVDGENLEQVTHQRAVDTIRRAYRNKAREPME
# APBA2_2, Q99767 = biological target: T9, APBA2_2, Q99767
# T9 sequence (Q99767 654-744, limits assumed, looked up): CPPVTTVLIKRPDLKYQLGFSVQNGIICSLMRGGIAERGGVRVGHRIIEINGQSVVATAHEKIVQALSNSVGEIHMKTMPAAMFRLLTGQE
# APBA1_2, Q02410 = biological target: T10, APBA1_2, Q02410
# T10 sequence (Q02410 742-832, limits assumed, looked up): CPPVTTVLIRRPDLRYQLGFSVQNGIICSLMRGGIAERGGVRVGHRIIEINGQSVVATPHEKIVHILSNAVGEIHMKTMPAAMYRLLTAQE
# MPDZ_12, O75970 = biological target: T11, MPDZ_12, O75970
# T11 sequence (O75970 1857-1958, limits assumed, looked up): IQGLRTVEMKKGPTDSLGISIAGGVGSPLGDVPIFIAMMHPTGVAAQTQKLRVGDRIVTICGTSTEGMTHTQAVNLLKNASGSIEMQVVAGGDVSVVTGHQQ
# Inadl_2, Q8NI35 = biological target: Inadl_2, Q8NI35
# IL16_3, Q14005 = biological target: IL16_3, Q14005
# MAGI2_2, Q86UL8 = biological target: MAGI2_2, Q86UL8
# Inadl_1, Q8NI35 = biological target: Inadl_1, Q8NI35
# LIMK2, P53671 = biological target: LIMK2, P53671
# GRASP, Q7Z6J2 = biological target: GRASP, Q7Z6J2
# NOS1, P29475 = biological target: NOS1, P29475
# Sequence of NOS1, P29475 (P29475 9-101): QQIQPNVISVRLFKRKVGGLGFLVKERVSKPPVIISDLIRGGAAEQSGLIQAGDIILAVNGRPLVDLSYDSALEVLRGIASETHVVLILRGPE
# Sequence of MAST1, Q9Y2H9 (Q9Y2H9 962-1065): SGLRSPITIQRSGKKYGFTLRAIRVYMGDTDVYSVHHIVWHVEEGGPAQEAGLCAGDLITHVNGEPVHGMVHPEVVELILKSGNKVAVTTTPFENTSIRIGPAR
# Sequence of GORASP1, Q9BQQ3 (Q9BQQ3 1-208): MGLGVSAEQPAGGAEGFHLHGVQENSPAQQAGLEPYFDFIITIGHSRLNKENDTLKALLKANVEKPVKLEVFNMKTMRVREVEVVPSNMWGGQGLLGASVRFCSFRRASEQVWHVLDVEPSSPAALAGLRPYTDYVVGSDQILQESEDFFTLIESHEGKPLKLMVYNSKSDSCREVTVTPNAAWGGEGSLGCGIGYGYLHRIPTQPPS
# Sequence of NHERF2_2, Q15599 (Q15599 142-238): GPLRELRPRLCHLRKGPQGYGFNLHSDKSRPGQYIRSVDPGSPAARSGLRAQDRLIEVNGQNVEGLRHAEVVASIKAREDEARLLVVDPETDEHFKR
# Sequence of MAGI2_2, Q86UL8 (Q86UL8 410-522): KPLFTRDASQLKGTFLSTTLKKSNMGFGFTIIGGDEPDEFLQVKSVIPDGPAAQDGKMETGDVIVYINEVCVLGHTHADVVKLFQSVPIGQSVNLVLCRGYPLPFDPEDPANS
# Sequence of NHERF4_4, Q86UT5 (Q86UT5 464-550): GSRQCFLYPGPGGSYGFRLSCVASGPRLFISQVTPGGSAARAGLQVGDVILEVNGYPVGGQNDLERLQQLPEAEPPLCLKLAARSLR
# Sequence of FRMPD3, Q5JV73 (Q5JV73 12-100): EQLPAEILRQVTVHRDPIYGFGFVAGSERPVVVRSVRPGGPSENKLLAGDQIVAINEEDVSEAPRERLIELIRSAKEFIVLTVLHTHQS
# Sequence of IL16_3, Q14005 (Q14005 1107-1207): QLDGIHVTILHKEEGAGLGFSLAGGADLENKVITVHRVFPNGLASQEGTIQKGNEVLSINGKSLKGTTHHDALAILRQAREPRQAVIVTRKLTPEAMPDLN
# Sequence of Inadl_2, Q8NI35 (Q8NI35 238-335): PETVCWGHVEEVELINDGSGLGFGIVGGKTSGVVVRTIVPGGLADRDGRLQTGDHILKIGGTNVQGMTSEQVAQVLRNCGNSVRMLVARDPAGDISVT
# Sequence of MAGI2_5, Q86UL8 (Q86UL8 915-1017): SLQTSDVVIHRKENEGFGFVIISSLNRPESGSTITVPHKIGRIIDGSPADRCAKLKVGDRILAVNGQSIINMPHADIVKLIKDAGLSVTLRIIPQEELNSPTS
# Sequence of LIMK2, P53671 (P53671 143-248): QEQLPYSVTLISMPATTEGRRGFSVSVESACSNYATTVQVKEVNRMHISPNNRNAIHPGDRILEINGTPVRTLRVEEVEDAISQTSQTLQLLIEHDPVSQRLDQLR
# Sequence of GRASP, Q7Z6J2 (Q7Z6J2 96-193): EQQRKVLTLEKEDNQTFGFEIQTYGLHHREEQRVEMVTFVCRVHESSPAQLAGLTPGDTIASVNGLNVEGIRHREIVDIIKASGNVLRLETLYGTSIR
# Sequence of LAP2, Q96RT1 (Q96RT1 other isoform, or with tags, fused parts or gaps): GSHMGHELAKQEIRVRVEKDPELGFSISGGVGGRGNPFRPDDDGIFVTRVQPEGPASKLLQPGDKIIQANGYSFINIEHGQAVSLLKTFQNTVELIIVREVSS
# Sequence of Inadl_1, Q8NI35 (Q8NI35 113-229): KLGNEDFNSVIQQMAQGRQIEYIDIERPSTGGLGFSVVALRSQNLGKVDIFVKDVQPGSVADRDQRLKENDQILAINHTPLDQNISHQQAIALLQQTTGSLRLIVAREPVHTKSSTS
# Sequence of ARHGEF12, Q9NZN5-2 (Q9NZN5 other isoform, or with tags, fused parts or gaps): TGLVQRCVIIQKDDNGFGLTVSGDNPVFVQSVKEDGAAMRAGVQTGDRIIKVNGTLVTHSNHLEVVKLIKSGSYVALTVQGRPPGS
Binder,"pKd (ARHGEF12, Q9NZN5-2)","pKd (GORASP1, Q9BQQ3)","pKd (DLG3_3, Q92796)","pKd (DVL3, Q92997)","pKd (PCLO, Q9Y6V0)","pKd (MAST1, Q9Y2H9)","pKd (DLG2_3, Q15700)","pKd (MAGI2_5, Q86UL8)","pKd (MPDZ_10, O75970)","pKd (FRMPD3, Q5JV73)","pKd (GRIP1_4, Q9Y3R0)","pKd (NHERF4_4, Q86UT5)","pKd (GRIP1_5, Q9Y3R0)","pKd (NHERF2_2, Q15599)","pKd (PARD3B_1, Q8TEW8)","pKd (LAP2, Q96RT1)","pKd (PDZD7_3, Q9H5P4)","pKd (APBA2_2, Q99767)","pKd (APBA1_2, Q02410)","pKd (MPDZ_12, O75970)",further results
"VLRLQSETSV [VANGL1, Q8TAA9]",3.7,below the threshold,4.7,below the threshold,below the threshold,below the threshold,4.71,4,below the threshold,below the threshold,below the threshold,below the threshold,below the threshold,3.75,below the threshold,4.07,below the threshold,below the threshold,3.6,below the threshold,"pKd (Inadl_2, Q8NI35): below the threshold; pKd (IL16_3, Q14005): below the threshold; pKd (MAGI2_2, Q86UL8): 4.47; pKd (Inadl_1, Q8NI35): below the threshold; pKd (LIMK2, P53671): below the threshold; pKd (GRASP, Q7Z6J2): below the threshold; pKd (NOS1, P29475): 3.75"
"GQDSREETQL [KCNT2, Q6UVM3]",4.67,3.75,below the threshold,below the threshold,below the threshold,5.14,below the threshold,4.37,below the threshold,below the threshold,below the threshold,below the threshold,below the threshold,5.17,below the threshold,3.75,4.47,below the threshold,3.79,below the threshold,"pKd (Inadl_2, Q8NI35): below the threshold; pKd (IL16_3, Q14005): below the threshold; pKd (MAGI2_2, Q86UL8): below the threshold; pKd (Inadl_1, Q8NI35): below the threshold; pKd (LIMK2, P53671): below the threshold; pKd (GRASP, Q7Z6J2): below the threshold; pKd (NOS1, P29475): 4.05"
